In patent US20220324959A1 (Janssen / Centocor, published 2022):

Legend:
recombinant human TNFα [1] = molecular target: T1, recombinant human TNFα (human, UniProt P01375 77-233, 125I label in the receptor blocking assay); experiment: cell-based or functional assay
recombinant human TNFα [2] = molecular target: T1, recombinant human TNFα; experiment: inhibition of 125I-TNFα binding to plate-coated p55-sf2, hybridoma supernatant
Description: (§1) 50:1 of p55-sf2 at 0.5:g/ml in PBS was added to Optiplates to coat the wells during a one-hour incubation at 37° C. Serial dilutions of the eight TNV cell supernatants were prepared in 96-well round-bottom plates using PBS/0.1% BSA as diluent. […] The mixture was preincubated for one hour at RT. The coated Optiplates were washed to remove unbound p55-sf2 and 50:1 of the ¹²⁵I-TNFα/cell supernatant mixture was transferred to the Optiplates. After 2 hrs at RT, Optiplates were washed three times with PBS-Tween. […] of Microscint-20 was added and the cpm bound determined using the TopCount gamma counter.
A simple binding assay was done to determine whether the eight TNV mAbs contained in hybridoma cell supernatant were capable of blocking TNFα binding to receptor. The concentrations of the TNV mAbs in their respective cell supernatants were first determined by standard ELISA analysis for human IgG.

recombinant human TNFα [3] = molecular target: T1, recombinant human TNFα; experiment: competition radioligand assay: mAb in hybridoma supernatant preincubated with 5 ng/ml 125I-TNFα, then binding of 125I-TNFα to plate-coated p55-sf2 (TNF receptor/IgG fusion) counted as cpm bound
Description: Varying amounts of hybridoma cell supernatants containing known amounts of TNV mAb were preincubated with a fixed concentration (5 ng/ml) of ¹²⁵I-labeled TNFα. […] The amount of TNFα that bound to the p55 receptor in the presence of the mAbs was determined after washing away the unbound material and counting using a gamma counter. Although eight TNV mAb samples were tested in these experiments, for simplicity three of the mAbs that were shown by DNA sequence analyses to be identical to one of the other TNV mAbs (see Section 5.2.2) are not shown here. Each sample was tested in duplicate. The results shown are representative of two independent experiments.
as §1

Row | neutralizing TNFα bioactivity (recombinant human TNFα [1]) | fold better at blocking TNF binding (against TNV118 and TNV14) (recombinant human TNFα [2]) | IC50 (read off the curve) (recombinant human TNFα [3]) | Binder
1 | 4 fold | ~4 fold | ~4 ng/mL | TNV148 (antibody, human IgG1, kappa, V domains shown, Hybridoma-derived fully human IgG1 kappa, tested as hybridoma supernatant; also called GenTNV148.26.12; C420A) VH: QVQLVESGGGVVQPGRSLRLSCAASGFIFSSYAMHWVRQAPGNGLEWVAFMSYDGSNKKYADSVKGRFTISRDNPKNTLYLQMNSLRAEDTAVYYCARDRGIAAGGNYYYYGMDVWGQGTTVTVSS VL: EIVLTQSPATLSLSPGERATLSCRASQSVYSYLAWYQQKPGQAPRLLIYDASNRATGIPARFSGSGSGTDFTLTISSLEPEDFAVYYCQQRSNWPPFTFGPGTKVDIKR
2 |  | ~4 fold |  | TNV86 (antibody, human IgG1, kappa, V domains shown, Hybridoma-derived fully human IgG1 kappa, tested as hybridoma supernatant; Identity is stated for the variable regions only; also called GenTNV86.14.34; C417A) VH: QVQLVESGGGVVQPGRSLRLSCAASGFIFSSYAMHWVRQAPGNGLEWVAFMSYDGSNKKYADSVKGRFTISRDNPKNTLYLQMNSLRAEDTAVYYCARDRGIAAGGNYYYYGMDVWGQGTTVTVSS VL: EIVLTQSPATLSLSPGERATLSCRASQSVYSYLAWYQQKPGQAPRLLIYDASNRATGIPARFSGSGSGTDFTLTISSLEPEDFAVYYCQQRSNWPPFTFGPGTKVDIKR
